Experiment: soluble on expression in E. coli; label from the status in PepcDB or PDB records

Soluble on expression in E. coli, soluble:
MDTSLPSAILNNMVTATLILDDGLAIRYANPAAELLFSQSAKRIVEQSLSQLIQHASLDLALLTQPLQSGQSITDSDVTFVVDGRPLMLEVTVSPITWQRQLMLLVEMRKID, MDVEKIALKHALINAIEHGGKANLKAVIGKVLGENPELRPRAKEIIPIINKVVEEVNSLARDEQLEKLKDIYPEYFEKKEEKKEKKGLPLLPKAEKGKVVTRFAPNPDGAFHLGNARAAILSYEYAKMYGGKFILRFDDTDPKVKRPEPIFYKMIIEDLEWLGIKPDEIVYASDRLEIYYKYAEELIKMGKAYVCTCPPEKFRELRDKGIPCPHRDEPVEVQLERWKKMLNGEYKEGEAVVRIKTDLNHPNPAVRDWPALRIIDNPNHPRTGNKYRVWPLYNFASAIDDHELGVTHIFRGQEHAENETRQRYIYEYFGWEYPVTIHHGRLSIEGVVLSKSKTRKGIEEGKYLGWDDPRLGTIRALRRRGILPEAIKELIIEVGLKKSDATISWENLAAINRKLVDPIANRYFFVADPIPMEVEGAPEFIAEIPLHPDHPERGVRRLKFTPERPVYVSKDDLNLLKPGNFVRLKDLFNVEILEVGDKIRARFYSFEYEIAKKNRWKMVHWVTEGRPCEVIIPEGDELVVRKGLLEKDAKVQVNEIVQFERFGFVRIDRIEGDKVIAIYAHK, MDVRRLKVNELREELQRRGLDTRGLKAELAERLQAALEAEEPDDERELDADDEPGRPGHINEEVETEGGSELEGTAQPPPPGLQPHAEPGGYSGPDGHYAMDNITRQNQFYDTQVIKQENESGYERRPLEMEQQQAYRPEMKTEMKQGAPTSFLPPEASQLKPDRQQFQSRKRPYEENRGRGYFEHREDRRGRSPQPPAEEDEDDFDDTLVAIDTYNCDLHFKVARDRSSGYPLTIEGFAYLWSGARASYGVRRGRVCFEMKINEEISVKHLPSTEPDPHVVRIGWSLDSCSTQLGEEPFSYGYGGTGKKSTNSRFENYGDKFAENDVIGCFADFECGNDVELSFTKNGKWMGIAFRIQKEALGGQALYPHVLVKNCAVEFNFGQRAEPYCSVLPGFTFIQHLPLSERIRGTVGPKSKAECEILMMVGLPAAGKTTWAIKHAASNPSKKYNILGTNAIMDKMRVMGLRRQRNYAGRWDVLIQQATQCLNRLIQIAARKKRNYILDQTNVYGSAQRRKMRPFEGFQRKAIVICPTDEDLKDRTIKRTDEEGKDVPDHAVLEMKANFTLPDVGDFLDEVLFIELQREEADKLVRQYNEEGRKAGPPPEKRFDNRGGGGFRGRGGGGGFQRYENRGPPGGNRGGFQNRGGGSGGGGNYRGGFNRSGGGGYSQNRWGNNNRDNNNSNNRGSYNRAPQQQPPPQQPPPPQPPPQQPPPPPSYSPARNPPGASTYNKNSNIPGSSANTSTPTVSSYSPPQPSYSQPPYNQGGYSQGYTAPPPPPPPPPAYNYGSYGGYNPAPYTPPPPPTAQTYPQPSYNQYQQYAQQWNQYYQNQGQWPPYYGNYDYGSYSGNTQGGTSTQ, MDYLSFIAVAAHEFVHTWNVKQYRPKGIVPYDYQQENYSNLLWLVEGSTSYLQYQLLLRGNLMTTDEFFTALAKRITAHAHKPGKESQSVAQASFDAWISEGGDYGNNHSVNILEHHHHHH, MDYMERPKLGLIVREPYASLIVDGRKVWEIRRRKTRHRGPLGIVSGGRLIGQADLVGVEGPFSVEELLAHQEKHLAEEAFLRAYAKDEPLYAWVLENAFRYEKPLHVPRRPGRVMFVDLSEVRW, MEAIDQLVGQWQKDGLSPSQVAEKFSKCVLYVTCEPCIMCASALSFLGIKEVYYGCPNDKFGGCGSILSLHLGSEEAQRGKGYKCRGGIMAEEAVSLFKCFYEQGNPNAPKPHRPVVQRERT, MEDLALRPKTLDEYIGQERLKQKLRVYLEAAKARKEPLEHLLLFGPPGLGKTTLAHVIAHELGVNLRVTSGPAIEKPGDLAAILANSLEEGDILFIDEIHRLSRQAEEHLYPAMEDFVMDIVIGQGPAARTIRLELPRFTLIGATTRPGLITAPLLSRFGIVEHLEYYTPEELAQGVMRDARLLGVRITEEAALEIGRRSRGTMRVAKRLFRRVRDFAQVAGEEVITRERALEALAALGLDELGLEKRDREILEVLILRFGGGPVGLATLATALSEDPGTLEEVHEPYLIRQGLLKRTPRGRVATELAYRHLGYPPPVGPLLEP

Soluble on expression in E. coli, not soluble:
MDSQKLRTEGKKMLDFVADYWDGIRDRKPLPDVKPGYINDLVPAQAPATPEDWAKIFDDLENVVVNGATHWHHPHFFAYFPTALSYQSIMADILSGGIAGIGFTWKSCPSMTELEMSSLDWVVDLMGLPEHFKNSHNGPGCGIIQSTASDSTMIAIMAARATHVERIKSEPTFMKWVSETGVGKTLKNIFDRVKVNKVDDEASGMITPYFHDPTVFERFVMYCSDQAHSSVEKGAMLSAVRMRKLKATRGFLGNYGVSRETLQNAIKEDRARGYIPFMFLATVGTTCSCGVDQVDELGPVCVEEGLYLHVDAAYAGTFALCEEFKYLIRGMEHVDSFNFNLHKAGMVNFDCSPMWFKNGTHVSRYFNVDAVYLAHEYQTTASDYRHLQVALGRRFRSLKIWFVLRNMGVDKIREYLRRTELLAAEFSKLILENGKFEHFVPQHLGLTCFRLKNSTNADNEKLCNAINDDRRIHLVPSTVHGTYFLRMVVCSQLTTLDDIIYARDVIFELAEKLF, MDSRIAIYVLVSASLLYLVNCHKLVHYFNLKINGSDITNTADILLDNYPIMTFDGKDIYPSIAFMVGNKLFLDLYKNIFVEFFRLFRVSVSSQYEELEYYYSCDYTNNRPTIKQHYFYNGEEYTEIDRSKKATNKNSWLITSGFRLQKWFDSEDCIIYLRSLVRRMEDSNKNSKKT, MDSVMRKSLFLLLPLVVTNAHAVYVDVRHEYLDDSKANYDRAYISHRFANGVGFAIEAISKSGGDDTNKAFNDLETQGNEYTISYQFKTGDVAWQPGFVLETGNGYSTYKPYFRATWTLNESWWVGARYRFEYVRRSSDIRDDDTINRMDVWAGYKWNNFDWTIEGIYKKADKYDLYDGGKDNYEYNFRTAYIIDQWSPFVEVGNVSVNSNSDERQTRFRVGIGYTF, MDTDNNLTFVDFYYRWLEITKLDIINDTSYKRYITAIKAFKDCFGNKLISDIDSLSYQKFLKDYGRGHFLNNGQLRPRTSNTVSKMNNCLKQAFESAVEQGYIKKNLEHHHHHH, MDTTTTSSLKSAEKKDTDATPRAHSPEIDVEVIKSDCSTPEKQNGAVGNEQQMNNSTSTRRTDSNKNLSPPPQRLRTSSSTSDGTENLISSLSSWDWVTIDGLKLPAVTRNKERYVAVHMVQLKLLSKFPSDIPRDITRKFTMGSHKMTVTEAWTFNTINAVIRKFDLGCQLFTANDELVKLNDVQMFYWNVKLFNLKRVNGQYETAISSAENNVQLLATAMQLKKQVDSDIQVIFK, MDVEKLNLDNIISRLLEVRGSKPGKNVQLTESEIKGLCQKSREIFLSQPILLELEAPLKICGDVHGQYYDLLRLFEYGGFPPESNYLFLGDYVDRGKQSLETICLLLAYKIKYPENFFLLRGNHECASINRIYGFYDECKRRYNIKLWKTFTDCFNCLPVAAIIDEKIFCCHGGLSPDLQSMEQIRRIMRPTDVPDQGLLCDLLWSDPDKDVTGWGENDRGVSFTFGPEVVAKFLHKHDLDLICRAHQVVEDGYEFFAKRQLVTLFSAPNYCGEFDNAGSMMTVDETLMCSFQILKPADKKKYPYGAGGVGSNRPVTPPRNAPAAQPKKGAKK, MDVNTTYTKELSIIVPIYNEERELPELVRRLSAAAASITEDYELIFVNDGSRDGSMELLRSLCKGDDRFFYINLSRNFGHQIAVSAGLDHVRGKATVIIDGDLQDPPELIPELYAKYREGYEVVYAQRKHREGETWFKKATAKGFYRTMRKITSIDMPLDTGDFRLIDRKIVQCLREMPEQNKFLRGQIAWMGFRQTGVQFDRDERKYGQTNYPLRKMLALAIDGITGFSSRPLEWVAQ, MDWIESVKSYIKVVEEGSFNAAAYQLNTSGSAISKRINWLEERVGVQLLTRTTRSVHQTEAGLLFYQRARLQLDQWQHLVDETRAINQTPAGLLKIGATLAVGSKFIIKYLDEFLATYPKIKVQLITTLPGQVPEHNVDVFISRELEQLNTFSYKATHLFEHHSGFFASKDYLDKYGTPNNINELKAHNMLIWGERPIKEIKLTNNKRVTLRGNFATTNPEALFHAAKRGMGILLTSQQMVIDDLQSGALVPILPEITTDHTRVNAYYPTLDYEHTRTQLFIKYLKTKLS, MDWYEPGEDTYTLMDALEREGLEMKIVLDLGTSTGVITEQLRKRNTVVSTDLNIRALESHRGGNLVRADLLCSINQESVDVVVFNPPYVPDTDDPIIGGGYLGREVIDRFVDAVTVGMLYLLVIEANRPKEVLARLEERGYGTRILKVRKILGETVYIIKGEKS, MDYRIRTSRDEDAALLPAIERSAGESFRLLPELAWIADAGVAGVDFHRRLIERGSHWLAEDADGQPVGFLAAERCADELHIAELSIAQAHQQQGLGRRLLERAVTYAHASHCRALTLTTFCDVPWNAPFYARLGFQRLTWQEAGERLRAILGHEQEIGFAADSRCAMRLVL, MEARPRVAGIVLAAGKSTRMGRPKQLLPFRGRTVLECVVDNALASRLHRVVVVLGHEAEAVMPLLGHRCVTTVVNPLYGEGQSSSLKAGLGAMTEETDAALFLLGDQPLVTADTINLLIAAFADFPSPIVIPTFEGHRGNPVLFSRETFPRIEALSGDRGARGLFREYGDDIRSIDVRTPAILFDLDTEEDYLRLLREFPAVLEHHHHHH, MEDCRGDGSRREIERRRKYGRELQDLREGGEEFEYYFFVSNVFRTKLQKMPGADYSAVKGGGLKLKAGKKNLFKVGKEKKKKNKDDKEKIDPDTVENGGWRKIADEFDMKGGTNVAIEVASGAGSTRTYVAAMDNGKFTIGFPHPEGEGPNPEEIFALVKTPDDSKISLKTGFGRYVGVDSEYQLVAMAEAIGSREQFVLVFQEGKTAFQAVSSPLFLSTVPNKEGHIYVASRTATENEMVNIRTDAIQEGPVDWRSVEDRKNARECETAYVKMYQHSKVDLKNRHIAIDVKDKKGVKKAQADGSAHELLLDRRMKMKSDRYC, MEDDAPMNLCNEQFEEIEDSPIDDNDNESFYNADGDVELEEEEVHETPKNFKNGGRFKTNMTNPKVNDLTTIEEKNEDLRSAASSRSASRPASVMSDKSFSSQFEFQSGGENAIEEYTNQVFADENKADLLFPETSKFMNGASPPKDKHHSWEPSIHHYDKQPPPDIQTNSPVFGNLNHRKNKLIPQARAKPGANDNEIVERDNDENVPTTSDKSAFITSPMNSTNHDEKTSTPKRPTNRKIGQYQGPNFDLSSIYVGSPQHQNTSISTGQQMPTSSYSHAHSETMMTNQTINESMVRRVLNGNNKNQDLFAALEEARKRRAAQPSKPDFRINTTRTRVPIKPTSARHSGNVVSSTSNDNTTAASSKDLTTSRKAMETFRQNASMADATNSNTASMTSILSTISTARTDISRSSRNHGGGFSNTSVSTVIPANNGNVSLSHGRDGRDSVSSVRTMSRASSTSTVYAGSTFSGVSKPLRIHAKRVAFGCVAVGETLRVEVEVENISDRQCLVRASTDSTTPVYQILDNKLTMVDPKKSIKFQVSFSPSSVGRYQVIMSIEVPAQNFIHKIPMWGNGGIAKFVPTSPDLQQTINQSEYAMCTSCAKRISFKISNSAGTRDGFAMIKVFDSAMRQLPDGCVAFFPAPGFIVKKKSDKRVDIRIDSSYIDLHDENNFRTSSSLSTASTTSSFQRRILPGAKFFVHVVWGEETMRTRLRLLEVRTGQHQLIDGHDFTSFQFSDEEVLRAVPVGFPAIKPEDRDLFAASYRSFFINFFTSTTEFRAATSRKKKEICSNDDSTLLETTAFRNQTFVNDVTIVPNTRFSNRK
